Data on one substance can be found in PMC12535091.

For this assay, the target named is Human β2GPI domain deletion mutant DI-DIV (human). Nature of the assay: ELISA; β2GPI or domain deletion mutants coated on Maxisorb plates at 1 µM overnight at 4 °C; Apo E-Biotin 50 nM, 1 h at RT; streptavidin-HRP, OD 450; % of binding to full length β2GPI.

Substance “Human Apo E2, biotinylated (from UniProt P02649 19-317) (natural protein)” registered a % binding of 42.5%.
